We go through 1 molecule from publication PMC11399405.

The target in data set [1] is SPD_1558 (Streptococcus pneumoniae D39, UniProt A0A0H2ZMV6 1-103). Description: EMSA. (In general: Mobility shift assays separate free from complexed probe on a gel.)
The target in data set [2] is SPD_1777 (Streptococcus pneumoniae D39, UniProt A0A0H2ZNW3 1-317). Description: EMSA.

B1: IGR1729/1728 and flanking RNA (55 nt) (ssRNA)
RNA: GCUAGUGCAGAUGCUCCAGUUAAAAAAGAGUAGGAGGUAGAGGAAAUGUCUCAAU
As to B1, the binding result in data set [1] and in data set [2] was “binds” in each case.
